# Test results published in patent publication US20070117924A1, “Biologically active material conjugated with biocompatible polymer with 1:1 complex, preparation method thereof and pharmaceutical composition comprising the same” (priority 2003, published 2007).
# Columns and labels:
# UMR-10^6 cell line = test: In vitro biological activity of mPEG-PTH conjugate: c-AMP synthesized in UMR-10^6 cell line; format: cell-based; conditions: concentration of 10-8 mole, FIG. 19
# [1] = Half-life of mPEG-Hz-PTH in rats (cAMP in plasma); conditions: male rats, 100 ug/kg intravenous; FIG. 20
# [2] = system: White Blood Cell (WBC) count; test: White blood cell (WBC) count of PEG-G-CSF-treated rats; format: in vivo, Sprague-Dawley rats; conditions: 100 ug/kg into tail vein, blood 0-96 hrs, FIG. 9
# [3] = Half life of PEG-G-CSF conjugate in rats (serum activity by cell XTT assay); conditions: 100 ug/kg intravenous, FIG. 8
Molecule,"activity retained, % of unreacted PTH (c-AMP synthesized) (UMR-10^6 cell line)",detection after administration (not detected) [1],time after administration at which detected [1],WBC counts compared with native G-CSF and Neulasta [2],half-life compared to native G-CSF [3]
mPEG(5000)-Hz-PTH,40%,not detected after 15 mins,,,
mPEG(12000)-Hz-PTH,30%,,1 h,,
mPEG(20000)-Hz-PTH,20%,,2 h,,
unreacted PTH [reference compound],,not detected after 15 mins,,,
"mPEG(20000)-Hz-G-CSF (conjugate, UniProt P09919 31-207, looked up, mPEG 20 kDa via hydrazine linker) Granulocyte …: TPLGPASSLPQSFLLKCLEQVRKIQGDGAALQEKLVSECATYKLCHPEELVLLGHSLGIPWAPLSSCPSQALQLAGCLSQLHSGLFLYQGLLQALEGISPELGPTLDTLQLDVADFATTIWQQMEELGMAPALQPTQGAMPAFASAFQRRAGGVLVASHLQSFLEVSYRVLRHLAQP",,,,higher WBC counts than both native G-CSF and Neulasta™,much longer half-life compared to native G-CSF
